B1: UDP-glucuronosyltransferase 1A9 (Homo sapiens), O60656-1 (parent)
chain: MACTGWTSPLPLCVCLLLTCGFAEAGKLLVVPMDGSHWFTMRSVVEKLILRGHEVVVVMPEVSWQLGRSLNCTVKTYSTSYTLEDLDREFKAFAHAQWKAQVRSIYSLLMGSYNDIFDLFFSNCRSLFKDKKLVEYLKESSFDAVFLDPFDNCGLIVAKYFSLPSVVFARGILCHYLEEGAQCPAPLSYVPRILLGFSDAMTFKERVRNHIMHLEEHLLCHRFFKNALEIASEILQTPVTEYDLYSHTSIWLLRTDFVLDYPKPVMPNMIFIGGINCHQGKPLPMEFEAYINASGEHGIVVFSLGSMVSEIPEKKAMAIADALGKIPQTVLWRYTGTRPSNLANNTILVKWLPQNDLLGHPMTRAFITHAGSHGVYESICNGVPMVMMPLFGDQMDNAKRMETKGAGVTLNVLEMTSEDLENALKAVINDKSYKENIMRLSSLHKDRPVEPLDLAVFWVEFVMRHKGAPHLRPAAHDLTWYQYHSLDVIGFLLAVVLTVAFITFKCCAYGYRKCLGKKGRVKKAHKSKTH
partner: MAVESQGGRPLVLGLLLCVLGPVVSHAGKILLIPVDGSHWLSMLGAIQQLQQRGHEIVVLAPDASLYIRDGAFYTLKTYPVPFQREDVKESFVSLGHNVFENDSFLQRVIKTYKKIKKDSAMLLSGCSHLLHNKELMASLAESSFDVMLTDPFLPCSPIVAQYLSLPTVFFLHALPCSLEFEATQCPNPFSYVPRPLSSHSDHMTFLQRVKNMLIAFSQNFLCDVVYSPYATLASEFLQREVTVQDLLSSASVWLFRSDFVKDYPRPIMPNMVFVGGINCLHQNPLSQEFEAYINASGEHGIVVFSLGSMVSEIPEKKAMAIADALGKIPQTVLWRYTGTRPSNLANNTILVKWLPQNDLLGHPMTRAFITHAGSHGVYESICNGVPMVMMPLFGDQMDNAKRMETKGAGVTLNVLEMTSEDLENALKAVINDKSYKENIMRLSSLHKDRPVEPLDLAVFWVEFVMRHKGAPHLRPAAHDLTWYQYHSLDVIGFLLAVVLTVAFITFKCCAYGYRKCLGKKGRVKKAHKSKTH
B2: UDP-glucuronosyltransferase 1A9 (Homo sapiens), O60656-1 (parent)
chain: B1 chain
partner: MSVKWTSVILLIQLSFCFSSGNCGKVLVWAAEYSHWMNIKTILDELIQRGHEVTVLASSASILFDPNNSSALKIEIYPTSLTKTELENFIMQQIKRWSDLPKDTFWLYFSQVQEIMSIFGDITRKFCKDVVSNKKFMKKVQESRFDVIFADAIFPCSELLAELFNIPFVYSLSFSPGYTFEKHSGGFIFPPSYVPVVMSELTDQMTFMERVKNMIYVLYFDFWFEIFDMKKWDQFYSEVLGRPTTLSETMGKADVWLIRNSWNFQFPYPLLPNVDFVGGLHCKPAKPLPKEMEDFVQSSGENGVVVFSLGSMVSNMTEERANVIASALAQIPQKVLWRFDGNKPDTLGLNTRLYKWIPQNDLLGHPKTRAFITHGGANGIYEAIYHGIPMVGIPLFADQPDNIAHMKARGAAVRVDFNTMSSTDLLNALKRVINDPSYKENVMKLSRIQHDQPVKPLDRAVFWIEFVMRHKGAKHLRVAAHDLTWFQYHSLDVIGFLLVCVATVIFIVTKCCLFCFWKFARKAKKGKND
B3: UDP-glucuronosyltransferase 2B7 (Homo sapiens), P16662 (parent)
chain: B2 partner
partner: B1 chain

One assay covers variants of B1. Conditions: with UGT1A1, P22309-1.
On to MACTGWTSPLPLCVCLLLTCGFAEAGKLLVVPTDGSHWFTMRSVVEKLILRGHEVVVVMPEVSWQLGRSLNCTVKTYSTSYTLEDLDREFKAFAHAQWKAQVRSIYSLLMGSYNDIFDLFFSNCRSLFKDKKLVEYLKESSFDAVFLDPFDNCGLIVAKYFSLPSVVFARGILCHYLEEGAQCPAPLSYVPRILLGFSDAMTFKERVRNHIMHLEEHLLCHRFFKNALEIASEILQTPVTEYDLYSHTSIWLLRTDFVLDYPKPVMPNMIFIGGINCHQGKPLPMEFEAYINASGEHGIVVFSLGSMVSEIPEKKAMAIADALGKIPQTVLWRYTGTRPSNLANNTILVKWLPQNDLLGHPMTRAFITHAGSHGVYESICNGVPMVMMPLFGDQMDNAKRMETKGAGVTLNVLEMTSEDLENALKAVINDKSYKENIMRLSSLHKDRPVEPLDLAVFWVEFVMRHKGAPHLRPAAHDLTWYQYHSLDVIGFLLAVVLTVAFITFKCCAYGYRKCLGKKGRVKKAHKSKTH [M33T], for which the “effect of a mutation on the interaction” value was “with no effect”.

In another assay the parent is B2. Conditions: with ud2b7_human UGT2B7, P16662.
Regarding MACTGWTSPLPLCVCLLLTCGFAEAGKLLVVPMDGSHWFTMRSVVEKLILRGHEVVVVMPEVSWQLGRSLNCTVKTYSTSYTLEDLDREFKAFAHAQWKAQVRSIYSLLMGSYNDIFDLFFSNCRSLFKDKKLVEYLKESSFDAVFLDPFDNCGLIVAKYFSLPSVVFARGILCHYLEEGAQCPAPLSYVPRILLGFSDAMTFKERVRNHIMHLEEHLLCHRFFKNALEIASEILQTPVTEYDLYSHTSIWLLRTNFVLDYPKPVMPNMIFIGGINCHQGKPLPMEFEAYINASGEHGIVVFSLGSMVSEIPEKKAMAIADALGKIPQTVLWRYTGTRPSNLANNTILVKWLPQNDLLGHPMTRAFITHAGSHGVYESICNGVPMVMMPLFGDQMDNAKRMETKGAGVTLNVLEMTSEDLENALKAVINDKSYKENIMRLSSLHKDRPVEPLDLAVFWVEFVMRHKGAPHLRPAAHDLTWYQYHSLDVIGFLLAVVLTVAFITFKCCAYGYRKCLGKKGRVKKAHKSKTH [D256N], the “effect of a mutation on the interaction” value is listed as “with no effect”.

MACTGWTSPLPLCVCLLLTCGFAEAGKLLVVPTDGSHWFTMRSVVEKLILRGHEVVVVMPEVSWQLGRSLNCTVKTYSTSYTLEDLDREFKAFAHAQWKAQVRSIYSLLMGSYNDIFDLFFSNCRSLFKDKKLVEYLKESSFDAVFLDPFDNCGLIVAKYFSLPSVVFARGILCHYLEEGAQCPAPLSYVPRILLGFSDAMTFKERVRNHIMHLEEHLLCHRFFKNALEIASEILQTPVTEYDLYSHTSIWLLRTDFVLDYPKPVMPNMIFIGGINCHQGKPLPMEFEAYINASGEHGIVVFSLGSMVSEIPEKKAMAIADALGKIPQTVLWRYTGTRPSNLANNTILVKWLPQNDLLGHPMTRAFITHAGSHGVYESICNGVPMVMMPLFGDQMDNAKRMETKGAGVTLNVLEMTSEDLENALKAVINDKSYKENIMRLSSLHKDRPVEPLDLAVFWVEFVMRHKGAPHLRPAAHDLTWYQYHSLDVIGFLLAVVLTVAFITFKCCAYGYRKCLGKKGRVKKAHKSKTH [M33T]: the “effect of a mutation on the interaction” value is “with no effect”.

MAYTGWTSPLPLCVCLLLTCGFAEAGKLLVVPMDGSHWFTMRSVVEKLILRGHEVVVVMPEVSWQLGRSLNCTVKTYSTSYTLEDLDREFKAFAHAQWKAQVRSIYSLLMGSYNDIFDLFFSNCRSLFKDKKLVEYLKESSFDAVFLDPFDNCGLIVAKYFSLPSVVFARGILCHYLEEGAQCPAPLSYVPRILLGFSDAMTFKERVRNHIMHLEEHLLCHRFFKNALEIASEILQTPVTEYDLYSHTSIWLLRTDFVLDYPKPVMPNMIFIGGINCHQGKPLPMEFEAYINASGEHGIVVFSLGSMVSEIPEKKAMAIADALGKIPQTVLWRYTGTRPSNLANNTILVKWLPQNDLLGHPMTRAFITHAGSHGVYESICNGVPMVMMPLFGDQMDNAKRMETKGAGVTLNVLEMTSEDLENALKAVINDKSYKENIMRLSSLHKDRPVEPLDLAVFWVEFVMRHKGAPHLRPAAHDLTWYQYHSLDVIGFLLAVVLTVAFITFKCCAYGYRKCLGKKGRVKKAHKSKTH [C3Y]: the “effect of a mutation on the interaction” value is “with no effect”.

The variants in the next assay derive from B3. Conditions: with UGT1A9, O60656-1.
On to MSVKWTSVILLIQLSFCFSSGNCGKVLVWAAEYSHWMNIKTILDELIQRGHEVTVLASSASILFDPNNSSALKIEIYPTSLTKTELENFIMQQIKRWSDLPKDTFWLYFSQVQEIMSIFGDITRKFCKDVVSNKKFMKKVQESRFDVIFADAIFPCSELLAELFNIPFVYSLSFSPGYTFEKHSGGFIFPPSYVPVVMSELTDQMTFMERVKNMIYVLYFDFWFEIFDMKKWDQFYSEVLGRPTTLSETMGKADVWLIRNSWNFQFPYPLLPNVDFVGGLHCKPAKPLPKEMEDFVQSSGENGVVVFSLGSMVSNMTEERANVIASALAQIPQKVLWRFDGNKPDTLGLNTRLYKWIPQNDLLGHPKTRAFITHGGANGIYEAIYHGIPMVGIPLFANQPDNIAHMKARGAAVRVDFNTMSSTDLLNALKRVINDPSYKENVMKLSRIQHDQPVKPLDRAVFWIEFVMRHKGAKHLRVAAHDLTWFQYHSLDVIGFLLVCVATVIFIVTKCCLFCFWKFARKAKKGKND [D398N], for which the “effect of a mutation on the interaction” value is given as “with no effect”.

Turning to MSVKWTSVILLIQLSFCFSSGNCGKVLVWAAEYSHWMNIKTILDELIQRGHEVTVLASSASILFDPNNSSSLKIEIYPTSLTKTELENFIMQQIKRWSDLPKDTFWLYFSQVQEIMSIFGDITRKFCKDVVSNKKFMKKVQESRFDVIFADAIFPCSELLAELFNIPFVYSLSFSPGYTFEKHSGGFIFPPSYVPVVMSELTDQMTFMERVKNMIYVLYFDFWFEIFDMKKWDQFYSEVLGRPTTLSETMGKADVWLIRNSWNFQFPYPLLPNVDFVGGLHCKPAKPLPKEMEDFVQSSGENGVVVFSLGSMVSNMTEERANVIASALAQIPQKVLWRFDGNKPDTLGLNTRLYKWIPQNDLLGHPKTRAFITHGGANGIYEAIYHGIPMVGIPLFADQPDNIAHMKARGAAVRVDFNTMSSTDLLNALKRVINDPSYKENVMKLSRIQHDQPVKPLDRAVFWIEFVMRHKGAKHLRVAAHDLTWFQYHSLDVIGFLLVCVATVIFIVTKCCLFCFWKFARKAKKGKND [A71S], the “effect of a mutation on the interaction” value is recorded as “with no effect”.

The values are drawn from IntAct's records for PubMed 27857056.
